Here are results for one molecule from patent US20240415930A1, “COMPOSITIONS AND METHODS FOR ENHANCING BRAIN PERFUSION” (Washington University, priority 2021, published 2024).

The test has as its system perivascular macrophages (PVMs). Nature of the test: M-CSF treatment of aged mice: OVA tracer diffusion/coverage (CSF flow). It is filed as in vivo. As to the method: FIG. 3U is a schematic diagram summarizing an experimental design to determine the effect of M-CSF treatment on CSF flow in aged mice.
FIG. 7D is a schematic diagram summarizing an experimental design wherein old mice were treated with M-CSF (or aCSF as a control group). Six hours after treatment, mice received OVA via ICM injection, and brains were harvested one hour after OVA diffusion.
First, it was observed that tracer diffusion in aged mice (24-month-old) was impaired compared to young/adult mice (3-month-old) (FIGS. 7A, 7B, 7C, 7D, 7E, and 7F).

Entries after “also recorded” stand apart in the source; their conditions may differ.

B1: macrophage colony stimulating factor (protein, UniProt P07141 33-552, looked up)
Macrophage colony-stimulating …: KEVSEHCSHMIGNGHLKVLQQLIDSQMETSCQIAFEFVDQEQLDDPVCYLKKAFFLVQDIIDETMRFKDNTPNANATERLQELSNNLNSCFTKDYEEQNKACVRTFHETPLQLLEKIKNFFNETKNLLEKDWNIFTKNCNNSFAKCSSRDVVTKPDCNCLYPKATPSSDPASASPHQPPAPSMAPLAGLAWDDSQRTEGSSLLPSELPLRIEDPGSAKQRPPRSTCQTLESTEQPNHGDRLTEDSQPHPSAGGPVPGVEDILESSLGTNWVLEEASGEASEGFLTQEAKFSPSTPVGGSIQAETDRPRALSASPFPKSTEDQKPVDITDRPLTEVNPMRPIGQTQNNTPEKTDGTSTLREDHQEPGSPHIATPNPQRVSNSATPVAQLLLPKSHSWGIVLPLGELEGKRSTRDRRSPAELEGGSASEGAARPVARFNSIPLTDTGHVEQHEGSSDPQIPESVFHLLVPGIILVLLTVGGLLFYKWKWRSHRDPQTLDSSVGRPEDSSLTQDEDRQVELPV
As to B1, where the note is “aged (24-month-old) mice, OVA ICM six hours after ICM M-CSF, brains harvested one hour later, vs aCSF”, the “OVA tracer diffusion/coverage through the brain” value was “improved tracer diffusion through the brain tissue; also recorded: increase in OVA diffusion/coverage compared to aCSF-treated mice; also recorded: improved perfusion of the brains in older mice”. Also, under “older mice, ICM injection”, the “state of perivascular macrophages” value was “rejuvenated the perivascular macrophages”.
